Experimental data published in patent publication US20250223358A1 (ANTENGENE BIOLOGICS, published 2025).
Where a chain is given by its changes, count along the chain named. In names and notes the source's numbering stands.

B1: hu40E9-L2H12 (antibody, V domains shown)
VH: EVQLVQSGAEVKKPGSSVKVSCKASGYTFSSYVIHWVRQAPGQGLEWMGYINPYNDVIKYNEKFKGRVTLTSDKSTSTAYMELSSLRSEDTAVYYCARDDYYSYDGFAYWGQGTLVTVSS
VL: EIVLTQSPDFQSVTPKEKVTITCSASSSVSYMHWYQQKPDQSPKRLIYDTSKLASGVPSRFSGSGSGTDFTLTINSLEAEDAATYYCQQWSSNPPTFGGGTKVEIK
B2: hu40E9-L4H3 (antibody, V domains shown)
VH: B1 VH with D100S
VL: B1 VL with S91R, N93R
B3: hu40E9-L2H16 (antibody, V domains shown)
VH: B1 VH with S31D, D100S
VL: B1 VL
B4: hu40E9-L5H8 (antibody, V domains shown)
VH: B1 VH with Y54G, D99E, D100S, Y102S
VL: B1 VL with S91R, N93S
B5: hu40E9-L2H14 (antibody, V domains shown)
VH: B1 VH with D99E, D100S
VL: B1 VL
B6: hu40E9-L2H13 (antibody, V domains shown)
VH: B1 VH with D100G
VL: B1 VL
B7: hu40E9-L4H8 (antibody, V domains shown)
VH: B1 VH with Y54G, D99E, D100S, Y102S
VL: B1 VL with S91R, N93R
B8: hu40E9-L5H7 (antibody, V domains shown)
VH: B1 VH with Y54G, D56G, D100S, Y102S
VL: B1 VL with S91R, N93S
B9: hu40E9-L6H3 (antibody, V domains shown)
VH: B1 VH with D100S
VL: B1 VL with S91R, N93W
B10: hu40E9-L4H7 (antibody, V domains shown)
VH: B1 VH with Y54G, D56G, D100S, Y102S
VL: B1 VL with S91R, N93R
B11: hu40E9-L2H15 (antibody, V domains shown)
VH: B1 VH with D99G, D100S
VL: B1 VL
B12: hu40E9-L5H3 (antibody, V domains shown)
VH: B1 VH with D100S
VL: B1 VL with S91R, N93S
B13: hu147E2-L3H3 (antibody, V domains shown)
VH: EVQLVQSGAEVKKPGSSVKVSCKASGYTFTSYWMHWVRQAPGQGLEWMGNINPSNGATNYNEKFKSRVTLTVDKSTSTAYMELSSLRSEDTAVYYCARDRSSQYYFDYWGQGTTVTVSS
VL: DIQMTQSPSSLSASVGDRVTITCKSSQSLLNSRSRKNYLAWYQQKPGKAPKLLIYWASTRESGVPSRFSGSGSGTDFTLTISSLQPEDFATYYCTQSYTLRTFGGGTKVEIK
notes: humanized 147E11E2; also called hu14E2-L3H3
B14: ch127E2D3 (antibody, V domains shown)
VH: QVQLQQPGTELVKPGASVKLSCKASGYTFTSYWMHWVKQRPGEGLEWIGNIYPGSSSINYNEKFKSKATLTVDKSSSTAYMQLSSLTSEDSAVYYCARDRSSQYYFDYWGQGTTLTVSS
VL: DIVMSQSPSSLAVSAGEKVTMSCKSSQSLLNSRTRKNYLAWYQQKPGQSPKLLIYWASTRESGVPDRFTGSGSGTDFTLTISSVQAEDLAVYYCTQSYNLRTFGGGTKLEIK
B15: ch124E3D6 (antibody, V domains shown)
VH: B14 VH with E43Q, Y52N, G54S, S55N, S56G, S57D, I58T
VL: B14 VL with T95K
B16: ch133B4C7 (antibody, V domains shown)
VH: B14 VH with E43Q, Y52N, G54S, S55N, S56G, S57D, I58T, Y60F
VL: B14 VL with K24N, T95K, N99T
B17: hu147E2-L1H3 (antibody, V domains shown)
VH: B13 VH
VL: DIVMTQSPDSLAVSLGERATINCKSSQSLLNSRSRKNYLAWYQQKPGQPPKLLIYWASTRESGVPDRFSGSGSGTDFTLTISSLQAEDVAVYYCTQSYTLRTFGGGTKVEIK
notes: humanized 147E11E2; also called hu14E2-L1H3
B18: hu147E2-L2H3 (antibody, V domains shown)
VH: B13 VH
VL: B17 VL with P49S
notes: humanized 147E11E2; also called hu14E2-L2H3
B19: hu147E2-L1H4 (antibody, V domains shown)
VH: B13 VH with M48I, V68A
VL: B17 VL
notes: humanized 147E11E2; also called hu14E2-L1H4
B20: hu147E2-L2H2 (antibody, V domains shown)
VH: B13 VH with L70I, V72A
VL: B17 VL with P49S
notes: humanized 147E11E2; also called hu14E2-L2H2
B21: hu147E2-L1H3b (antibody, V domains shown)
VH: B13 VH with N55S
VL: B17 VL
notes: humanized 147E11E2 with N55S in HCDR2 (deamidation site removed); also called hu14E2-L1H3b
B22: hu147E2-L2H4 (antibody, V domains shown)
VH: B13 VH with M48I, V68A
VL: B17 VL with P49S
notes: humanized 147E11E2; also called hu14E2-L2H4
B23: ch140D2B10 (antibody, V domains shown)
VH: B14 VH with E43Q, Y52N, G54S, S55N, S56G, S57E, I58S, S91Y
VL: B14 VL with T95K, N99T
B24: hu147E2-L1H3a (antibody, V domains shown)
VH: B13 VH with N55Q
VL: B17 VL
notes: humanized 147E11E2 with N55Q in HCDR2 (deamidation site removed); also called hu14E2-L1H3a
B25: hu147E2-L1H2 (antibody, V domains shown)
VH: B13 VH with L70I, V72A
VL: B17 VL
notes: humanized 147E11E2; also called hu14E2-L1H2

biological target: T1, human CD3 (human, UniProt P07766 23-207; P04234 22-171; P09693 23-182); experiment: FACS on Jurkat cells
T1 construct: whole, on cells; also called hCD3; CD3 on Jurkat cells
T1 sequence (P07766 23-207, chain 1 of 3): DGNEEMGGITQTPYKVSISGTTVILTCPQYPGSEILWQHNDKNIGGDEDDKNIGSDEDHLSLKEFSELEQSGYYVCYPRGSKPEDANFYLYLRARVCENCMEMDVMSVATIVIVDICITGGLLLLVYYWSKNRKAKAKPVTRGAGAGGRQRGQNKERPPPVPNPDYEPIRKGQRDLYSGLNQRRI
T1 sequence (P04234 22-171, chain 2 of 3): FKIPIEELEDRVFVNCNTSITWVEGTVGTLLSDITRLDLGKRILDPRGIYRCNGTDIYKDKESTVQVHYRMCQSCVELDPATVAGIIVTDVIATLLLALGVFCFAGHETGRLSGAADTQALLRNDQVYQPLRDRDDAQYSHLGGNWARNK
T1 sequence (P09693 23-182, chain 3 of 3): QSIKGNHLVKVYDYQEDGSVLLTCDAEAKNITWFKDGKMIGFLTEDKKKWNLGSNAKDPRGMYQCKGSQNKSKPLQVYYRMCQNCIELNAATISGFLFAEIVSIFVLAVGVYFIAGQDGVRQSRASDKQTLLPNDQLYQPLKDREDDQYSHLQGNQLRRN

Binder	EC50	Top FACS signal
B1	72.9 nM	850
B2	1.59 nM	2490
B3	1.27 nM	2010
B4	25.4 nM	531
B5	0.43 nM	2020
B6	83.7 nM	2050
B7	26.9 nM	255
B8	0.48 nM	1850
B9	0.8 nM	1990
B10	1.52 nM	1900
B11	51.7 nM	796
B12	0.66 nM	2490

biological target: T1, human CD3; experiment: FACS on Jurkat cells; remark: another data set of the same source

Binder	EC50	Top FACS signal
B13	0.659 nM	2680

biological target: T1, human CD3; experiment: cell-based or functional assay

Binder	EC50 (Jurkat-NFAT-luciferase activation)	Top signal (Jurkat-NFAT-luciferase activation)
B14	61.7 nM	337
B15	32.4 nM	482
B16	28 nM	290

biological target: T1, human CD3; experiment: cell-based or functional assay; remark: another data set of the same source

Binder	EC50_Fold change (Jurkat-NFAT-luciferase activation, normalized to ch40-C12-C10-E9)	Top signal_Fold change (Jurkat-NFAT-luciferase activation, normalized to ch40-C12-C10-E9)
B1	21.3 fold	0.73 fold
B2	1.82 fold	1.08 fold
B3	6.18 fold	1.35 fold
B4	–	0.3 fold
B5	3.86 fold	0.96 fold
B6	3.08 fold	0.51 fold
B7	–	0.32 fold
B8	3.41 fold	1.15 fold
B9	4.34 fold	0.95 fold
B10	1.95 fold	1.12 fold
B11	98.6 fold	0.75 fold
B12	23.2 fold	1.47 fold

biological target: T1, human CD3; experiment: cell-based or functional assay; remark: another data set of the same source

Binder	EC50_Fold change (Jurkat-NFAT-luciferase activation, normalized to ch147E11E2)	Top FACS signal_Fold change (Jurkat-NFAT-luciferase activation, normalized to ch147E11E2)
B17	1.98 fold	1 fold
B13	1.36 fold	0.68 fold
B18	1.65 fold	0.78 fold
B19	1.21 fold	0.92 fold
B20	1.4 fold	0.9 fold
B21	1.73 fold	0.87 fold
B22	1.24 fold	0.99 fold

biological target: T2, cynomolgus CD3 (cynomolgus (Macaca fascicularis), UniProt Q95LI5 22-198; Q95LI8 22-171; Q95LI7 23-181); experiment: FACS on 293T-cynoCD3mix cells
T2 construct: whole, on cells; composition of the 'mix' not defined; also called cynoCD3
T2 sequence (Q95LI5 22-198, chain 1 of 3): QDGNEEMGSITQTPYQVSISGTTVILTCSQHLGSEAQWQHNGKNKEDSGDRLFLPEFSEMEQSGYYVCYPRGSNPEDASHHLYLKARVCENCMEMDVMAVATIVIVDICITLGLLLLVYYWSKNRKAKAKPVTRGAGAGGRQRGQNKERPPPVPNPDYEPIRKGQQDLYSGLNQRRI
T2 sequence (Q95LI8 22-171, chain 2 of 3): as the sequence (P04234 22-171, chain 2 of 3) above, with I5V, N15K, I20V, S32T, D33N, I34N, T64A, S74N, V83L, H141R counted along it
T2 sequence (Q95LI7 23-181, chain 3 of 3): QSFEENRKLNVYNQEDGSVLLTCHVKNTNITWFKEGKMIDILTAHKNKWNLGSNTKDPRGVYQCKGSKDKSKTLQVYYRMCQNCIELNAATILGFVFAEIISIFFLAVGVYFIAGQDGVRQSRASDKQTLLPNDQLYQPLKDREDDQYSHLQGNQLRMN

Binder	EC50	Top signal
B14	2.33 nM	46900
B15	2.64 nM	45800
B23	2.81 nM	52900
B16	2.81 nM	45200

biological target: T2, cynomolgus CD3; experiment: FACS on 293T-cynoCD3mix cells; remark: another data set of the same source

Binder	EC50	Top signal
B17	1.51 nM	19200
B13	1.63 nM	19000
B24	1.66 nM	20700
B18	1.86 nM	21000
B25	2.01 nM	19700
B19	1.31 nM	18700
B20	1.64 nM	20500
B21	1.68 nM	21100
B22	2.02 nM	21200
